Here are results for three molecules from paper doi:10.1101/720318 (bioRxiv, 2019).

B1: D1min W293A (peptide)
peptide: APQAMLPLLLGLY
modifications: N-terminal acetyl, C-terminal amide (Ac-APQAMLPLLLGLY-NH2, printed for the NMR samples)

This experiment addresses BKV serotype 1 VP1 (30-297) pentamer (BK polyomavirus). Kind of experiment: AlphaScreen or HTRF.
Consider APQWMLPALLGLY [D1min L297A], for which the binding result is “binds”.

As to B1, the binding result is given as “binds”. For APQWMLPLALGLY [D1min L298A], the binding result is recorded as “binds”.
